Biological target: T1, ectodomain of murine αKlotho (A35 to K982 of SEQ ID NO: 231) with a C-terminal FLAG tag (murine, UniProt O35082 35-982)
T1 construct: Purified from culture media of a HEK293 cell line; also called αKlotho ectodomain; not shown: C-terminal FLAG tag
T1 sequence: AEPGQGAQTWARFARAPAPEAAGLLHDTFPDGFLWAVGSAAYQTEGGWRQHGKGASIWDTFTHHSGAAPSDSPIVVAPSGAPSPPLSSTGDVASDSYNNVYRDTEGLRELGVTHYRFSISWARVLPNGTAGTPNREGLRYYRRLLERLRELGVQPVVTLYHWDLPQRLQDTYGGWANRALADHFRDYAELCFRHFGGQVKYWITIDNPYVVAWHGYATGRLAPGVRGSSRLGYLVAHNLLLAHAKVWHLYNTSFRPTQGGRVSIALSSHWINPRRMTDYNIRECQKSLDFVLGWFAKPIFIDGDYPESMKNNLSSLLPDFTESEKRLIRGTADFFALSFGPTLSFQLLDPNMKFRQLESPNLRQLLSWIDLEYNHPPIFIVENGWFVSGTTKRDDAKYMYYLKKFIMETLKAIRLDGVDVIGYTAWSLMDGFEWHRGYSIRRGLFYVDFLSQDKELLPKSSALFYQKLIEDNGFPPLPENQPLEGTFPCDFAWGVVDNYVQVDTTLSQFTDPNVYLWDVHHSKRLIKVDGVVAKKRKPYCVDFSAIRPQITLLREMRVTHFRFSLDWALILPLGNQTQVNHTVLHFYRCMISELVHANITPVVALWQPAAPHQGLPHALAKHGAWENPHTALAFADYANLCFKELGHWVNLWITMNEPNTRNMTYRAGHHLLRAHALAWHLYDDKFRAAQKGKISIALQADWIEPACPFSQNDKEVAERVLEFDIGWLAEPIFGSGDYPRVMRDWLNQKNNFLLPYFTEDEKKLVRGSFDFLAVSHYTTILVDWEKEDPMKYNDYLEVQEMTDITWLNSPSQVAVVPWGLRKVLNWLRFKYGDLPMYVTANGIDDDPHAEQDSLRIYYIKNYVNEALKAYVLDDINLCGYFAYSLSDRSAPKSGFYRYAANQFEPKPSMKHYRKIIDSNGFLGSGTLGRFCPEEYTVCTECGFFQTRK
Assay: SPR; FGF21 immobilized, increasing concentrations of αKlotho ectodomain passed over the chip (FIG. 4E)
Experimental: SPR experiments were performed on a Biacore 2000 instrument (Biacore AB), and all the protein-protein and protein-peptide interactions were studied at 25° C. in HBS-EP buffer (10 mM HEPES-NaOH, pH 7.4, 150 mM NaCl, 3 mM EDTA, 0.005% (v/v) polysorbate 20). Proteins were immobilized by amine coupling on flow channels of research grade CM5 chips (Biacore AB). Proteins were injected over a CM5 chip at a flow rate of 50 μl min⁻¹, and at the end of each protein injection (180 s), HBS-EP buffer (50 μl min⁻¹) was flowed over the chip to monitor dissociation for 180 s. In experiments where βKlotho binding to FGFR was analyzed, the chip surface was then regenerated by injecting 50 μl of 2.0 M NaCl in 10 mM sodium/potassium phosphate, pH 6.5. In experiments where α/βKlotho binding to FGF19/21/23 or binding of the FGFR1c-βKlotho complex to FGF21 was studied, 2.0 M NaCl in 10 mM sodium acetate, pH 4.5 was used for chip regeneration. To control for nonspecific binding in experiments where the ectodomain of αKlotho or βKlotho was immobilized on the chip, β-glucuronidase was coupled to the control flow channel of the chip (˜43-68 fmol/mm²). […] For each protein injection over a chip onto which αKlotho or βKlotho had been immobilized, the nonspecific responses from the β-glucuronidase control flow channel were subtracted from the responses recorded for the α/βKlotho flow channel.

binding result: no binding
B1: human FGF21, secreted bioactive form (H29 to S209 of SEQ ID NO: 100) (ligand)
chain: HPIPDSSPLLQFGGQVRQRYLYTDDAQQTEAHLEIREDGTVGGAADQSPESLLQLKALKPGVIQILGVKTSRFLCQRPDGALYGSLHFDPEACSFRELLLEDGYNVYQSEAHGLPLHLPGNKSPHRDPAPRGPARFLPLPGLPPALPEPPGILAPQPPDVGSSDPLSMVGPSQGRSPSYAS
notes: Used both immobilized on the SPR chip and in solution; also called wild-type FGF21; native FGF21

— US20130231277A1 (NEW YORK UNIVERSITY, published 2013)
